Data reported in patent US20220017616A1 (Amgen, published 2022).
Numbering of substitutions follows the chain as printed.

T1: human TIGIT (human, UniProt Q495A1 22-244)
T1 sequence: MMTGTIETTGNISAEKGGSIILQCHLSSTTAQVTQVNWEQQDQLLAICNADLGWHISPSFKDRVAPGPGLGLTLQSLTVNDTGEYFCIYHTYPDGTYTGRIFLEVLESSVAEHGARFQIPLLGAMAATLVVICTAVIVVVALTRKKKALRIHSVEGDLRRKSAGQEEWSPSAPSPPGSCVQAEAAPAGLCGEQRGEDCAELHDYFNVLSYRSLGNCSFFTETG

T2: cynomolgus monkey CD112R (cynomolgus monkey)
T2 construct: also called cyno CD112R
T2 chain: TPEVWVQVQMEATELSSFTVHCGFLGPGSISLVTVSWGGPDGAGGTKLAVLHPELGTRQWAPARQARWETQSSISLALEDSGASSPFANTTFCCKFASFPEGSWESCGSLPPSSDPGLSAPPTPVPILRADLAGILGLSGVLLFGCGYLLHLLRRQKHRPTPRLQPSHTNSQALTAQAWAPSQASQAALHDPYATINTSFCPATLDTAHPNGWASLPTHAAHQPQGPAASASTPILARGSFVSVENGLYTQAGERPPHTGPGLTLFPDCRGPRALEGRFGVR

T3: huTIGIT (PL44403) (human, UniProt Q495A1 22-141)
T3 construct: Soluble protein; also called Human TIGIT (Octet analyte, mono-Fc tag)
T3 sequence: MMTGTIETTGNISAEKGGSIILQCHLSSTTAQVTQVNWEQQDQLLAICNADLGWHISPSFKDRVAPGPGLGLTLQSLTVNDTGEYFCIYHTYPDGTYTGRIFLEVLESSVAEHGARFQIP

T4: human CD112R (human, UniProt Q6DKI7 41-326)
T4 construct: also called huCD112R; PVRIG
T4 sequence: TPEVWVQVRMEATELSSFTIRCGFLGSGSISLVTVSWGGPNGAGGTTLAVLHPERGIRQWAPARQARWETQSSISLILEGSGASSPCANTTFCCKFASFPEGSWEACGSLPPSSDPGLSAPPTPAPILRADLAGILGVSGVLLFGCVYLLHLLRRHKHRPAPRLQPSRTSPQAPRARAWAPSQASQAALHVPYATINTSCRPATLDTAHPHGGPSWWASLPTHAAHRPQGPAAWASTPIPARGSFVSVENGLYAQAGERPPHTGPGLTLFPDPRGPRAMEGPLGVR

T5: biotinylated human CD112R-Fc (human, UniProt Q6DKI7 41-171, limits assumed, biotinylated)
T5 construct: also called CD112R receptor (on streptavidin beads)
T5 sequence: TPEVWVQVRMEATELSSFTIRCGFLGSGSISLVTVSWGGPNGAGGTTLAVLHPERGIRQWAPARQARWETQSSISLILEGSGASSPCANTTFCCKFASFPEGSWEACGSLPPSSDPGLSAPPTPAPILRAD

B1: 39D2 (antibody, V domains shown)
VH: QVQLVQSGAEVKKPGASVKVSCKASGYTFTGYYIHWVRQAPGQGLEWMGWISPTSGATGYAQNFQGRVTMTRDTSITTAYMELSRLRSDDTAVYYCARDSNSVLYYYGMDVWGQGTTVTVSS
VL: DIEMTQAPSSLSASVGDRVTITCRASQTIRRYLNWYQQKPGKAPKLLIYAASSLQNGVPSRFSGSVSGTDFTLTISSLQPEDFATYYCQQSYSTPLTFGGGTKVGIRR
notes: Fully human XenoMouse antibody, tested as hybridoma supernatant or purified mAb
B2: 55G7 (antibody, V domains shown)
VH: QVQLVESGGGVVQPGRSLRLSCAASGFTFSSYGMHWVRQAPGKGLEWVALIWFDESNIYYADSVKGRFTISRDNSKNTLYLQMNSLRAEDTAVYFCARGYDLLTGYYNFDFWGLGTLVTVSA
VL: QAGLTQPPSVSKGLRQTATLTCTGNTNNVGNRGAAWLQQHQGHPPKLLSYRNNNRPSGISERLSASRSGNTASLTITGLQPEDEADYYCSAWDSSLSAWVFGGGTKLTVLG
notes: as for B1
B3: 58A7 (antibody, V domains shown)
VH: QVQLQESGPGLVKPSQTLSLTCTVSGGSISSGGYYWNWIRQHPGKGLEWIGYIYYSGSTFYNPSLKSRVIISVDTSKNQFSLKLSSVTAADTAVYYCARAPRYNWNYGWFDPWGQGTLVTVSS
VL: EIVLTQSPGTLSLSPGERATLSCRASQNVSSTYLAWYQQKPGQAPRLLFYGASSRATGIPDRFSRSGSGTDFTLTISRLEPEDFAVYYCQQYDVSPWTFGQGTKVEIK
notes: Tested as hybridoma supernatant or purified mAb; also called 48B7
B4: 4G10 (antibody, V domains shown)
VH: QVQLQESGPGLVNPSQTLSLTCIVSGGSIRSGDYYWSWIRQHPGKGLEWIGYIYYSGGTYYNPSLKSRVIISVDTTKNQFSLKLSSMTAADTAVYYCARGSIAARSGYFYFSGLDVWGQGPTVTVSS
VL: EIVLTQTPLSLSVTPGQPASISCKSSQSLLPSDGKTYLSWYLQKPGLPPQVLIYEVSNRFSGVPDRFSGSGSGTDFTLKISRVEAEDVGVYYCMQSIQLPLTFGGGTKVEIKR
notes: as for B1
B5: 66H9 (antibody, V domains shown)
VH: QVQLQESGPGLVKPSQTLSLTCTVSGGSISSVYFYWNWIRQHPGKGLEWIGYIYYSGGTYYNPSLRSRVTISVDTSKNQFSLKLNSVTAADTAVYYCARGSIAAGGGYFYYNDMDVWGQGTTVTVSS
VL: EIVLTQSPDFQSVTPKEKVAITCRASQSIGSSLHWYQQKPDQSPKPLIKYVSQSFSGVPSRFSGSGSGTDFTLTINSLEAEDAATYYCHQSSSLPLTFGGGTKVEIKR
notes: as for B1
B6: 27G12 (antibody, V domains shown)
VH: QVQLVQSGGEVKKPGASVKVSCKASGFTFTSYDINWVRQATGQGLEWMGWMNHYSGDSDYAQKLQGRVIITRNTSITTAYMELSSLRSEDTAVYYCGRERFPFGMDVWGQGTTVTVSS
VL: DIQMTHSPSSLSASIGDRVTITCRASQGIRNELGWYQKKPGKAPKRLIYSASSLQSGVPSRFSGSGSGTEFTLTISSLQPEDFATYYCLQHNTYPLTFGGGTKVEIK
notes: Fully human XenoMouse antibody, tested as hybridoma supernatant
B7: 1E1 (antibody, V domains shown)
VH: QVQLVQSGAEVKKPGASVKVSCQASGYTFTDYYIYWVRQAPGQGLEWMGWINPNSGGTNYAQKFQGRVTMTRDTSISTAYIELSRLRSDDTAVYYCAREDNFNGMDVWGQGTTVTVSS
VL: DIQMTQSPSSLSASVGDRVTITCRASQGIRNDLGWYQQKPGKAPKRLIYAASSLQSGVPSRFSGSGSGTEFTLTISSLQPEDFATYYCLQLNSYPLTFGGGTKVEIKR
notes: Fully human XenoMouse antibody, tested as hybridoma supernatant or purified mAb; also called 18C10
B8: 24F1 (antibody, V domains shown)
VH: EVQLVESGGGLVQPGGSLRLSCAASGFTFSRDDMHWVRQATGKGLEWVAGIDNAGDTYYPGSVKGRFTISRENAKNSLYLQMNSLRAGDTAIYYCAREGQWPYGMDVWGQGTTVTVSS
VL: B7 VL with A50S, P59S, L91S
notes: as for B6
B9: 29E10 (antibody, V domains shown)
VH: EVQLVESGGGLVQPGGSLRLSCAASGFTFRNYDMHWVRQVPGKGLEWVSDIGNSGETYYLGSVKGRFTISRENAKNSLYLQMNSLRAGDTAVYYCVREEFGYGMDVWGQGTTVTVSS
VL: B7 VL with L91H
notes: as for B6
B10: 31B3 (antibody, V domains shown)
VH: QVQLVESGGGVVQPGRSLRLSCAASGFTFSYYGMHWVRQAPGKGLEWVALISYDGNNKYYVDSVRGRFTISRDNSKNTLSLQMNSLRAEDTAVYYCAREIFGESYYYGMDVWGQGTTVTVSS
VL: EIVMTQSPATLSVSPGERATLSCRASQSISRNLAWYQQKPGQAPRLLIYGASIRATVIPARFSGSGSGTEFTLTISSLQSEDFAIYYCQQYNNWMCSFGQGTKLEIK
notes: as for B6
B11: 11E4 (antibody, V domains shown)
VH: QVQLQESGPGLVKPSQTLSLTCTVSGGSISSGGYYWSWIRQHPGKGLEWIGYIYYSGSTSYNPSLKSRVTISVDTSKNQFSLKLSSVTAADTAVYYCARDLDYDILTGYPRWDYGMDVWGQGTTVTVSS
VL: EIVMTQSPATLSVSPGERATLSCRASQSVSNNLAWYQQKPGQAPRLLIYSESTRATGIPDRFSGSGSGTEFTLTISSLQSEDFAVYYCQQHNNWPRTFGQGTKVEIKR
notes: as for B6

molecular target: T1, human TIGIT; test: cell-based or functional assay

| Binder | activity in the primary CD8 memory T-cell assay (IFN-γ release, CHO-K1-CD155+ cells) |
| --- | --- |
| B1 | 380 pM |

molecular target: T1, human TIGIT; test: flow cytometry on CHO-S cells expressing human TIGIT, competitor huCD155-Fc-Alexa 647, at 1.7 µg/mL
Method: (§1) TIGIT-binding hybridoma supernatants were then tested for their ability to block TIGIT from binding ligand. […] The 7-AAD cell viability stain was then added and the cells incubated for a further 15 minutes at 4° C., washed twice and resuspended in FACS buffer. Samples were analyzed using a BD Accuri™ Flow Cytometer and an Intellicyt HyperCyt autoSampler.

| Binder | % inhibition |
| --- | --- |
| B2 | 99% |
| B3 | 99% |
| B1 | 100% |
| B4 | 100% |
| B5 | 98% |

Molecular target: T2, cynomolgus monkey CD112R
Test: flow cytometry, titration on activated cyno PBMCs
Method: (§2) Briefly, cultured human T cells and cyno PBMCs were incubated with lead panel starting at 3 μg/mL for human or 5 μg/mL for cyno and titrated 1 in 3 for the lowest concentration of 0.001 μg/mL for human and 0.002 μg/mL for cyno. […] For analysis, FCS Express was used to obtain Geo Means and Screener was used to determine fold over Isotype control, titration curves and EC50 values.

| Binder | EC50 |
| --- | --- |
| B6 | 0.174 µg/mL |
| B7 | 0.0087 µg/mL |
| B8 | 0.0334 µg/mL |
| B9 | 0.0322 µg/mL |
| B10 | 0.898 µg/mL |

molecular target: T3, huTIGIT (PL44403); test: Octet, antibody on anti-huIgG Fc capture tips, huTIGIT as analyte
Method: (§3) In the case of cynoTIGIT, association was monitored for 5 min and dissociation for 5 min. […] The limit of detection of dissociation is 4e-5 based on a minimum of 5% dissociation over 20 minutes.

| Binder | Kd |
| --- | --- |
| B2 | < 0.1 nM |
| B3 | < 0.1 nM |
| B1 | < 0.1 nM |
| B4 | < 0.2 nM |
| B5 | < 0.1 nM |

molecular target: T6, cynomolgus TIGIT (cynomolgus monkey); test: flow cytometry, 1 µg/mL on activated primary cyno PBMCs, fold over isotype control
T6 construct: Cell-surface form; also called cyno TIGIT
T6 sequence (chain, as listed by the source): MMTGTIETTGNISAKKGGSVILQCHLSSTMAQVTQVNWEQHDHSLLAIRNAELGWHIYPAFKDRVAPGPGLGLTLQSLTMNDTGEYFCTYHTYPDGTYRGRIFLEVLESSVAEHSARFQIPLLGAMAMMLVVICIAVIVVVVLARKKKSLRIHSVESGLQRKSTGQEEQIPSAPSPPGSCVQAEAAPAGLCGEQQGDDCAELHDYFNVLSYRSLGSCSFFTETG
Method: (§4) The binding of hybridoma supernatants to TIGIT expressed by primary human and cynomolgus monkey cells were tested by flow cytometry. For human primary cell binding assay, purified human T cells (Biological Specialty Corp.) were thawed and suspended at a concentration of 2.5×10⁶ cells/mL. […] After 72 hours, cells were removed, washed and suspended at a concentration of 0.5×10⁶ cells/mL with 10 ng/mL of IL-2 (Pepro Tech). Cells were then incubated for another 48 to 72 hours at 37° C./5% CO₂. For cynomolgus primary cell binding assay, cynomolgus PBMCs (SNBL) were thawed and suspended in a concentration between 4×10⁶ and 5×10⁶ cells/mL. […] After 72 hours, cells were removed, washed and suspended at a concentration of 0.5×10E6 cells/mL with 20 ng/mL of IL-2 (Pepro Tech). Cells were then incubated for another 48 to 72 hours at 37° C./5% CO₂. After the final incubation, cells were prepared for flow cytometry by incubation with normalized hybridoma supernatants, positive control antibodies and isotype control antibodies at 1 μg/mL final concentration. […] Cells were then run on BD FACSCanto II flow cytometer to detect anti-TIGIT antibody binding.

| Binder | FACS Geomean Fold |
| --- | --- |
| B2 | 12.3 fold |
| B3 | 7.2 fold |
| B5 | 4 fold |

molecular target: T1, human TIGIT; test: cell-based or functional assay; remark: another data set of the same source

| Binder | Potency [nM], Jurkat human TIGIT/IL-2-luciferase RGA, n = 1 | Potency [nM], Jurkat human TIGIT/IL-2-luciferase RGA, n = 2 |
| --- | --- | --- |
| B2 | 4.4 nM | 14.4 nM |
| B3 | 7.9 nM | 2.9 nM |
| B1 | 2 nM | 2.8 nM |
| B4 | 6.7 nM | 15 nM |
| B5 | 3.4 nM | 5.8 nM |

molecular target: T4, human CD112R; test: flow cytometry, titration on activated primary human T cells
Method: as §2

| Binder | EC50 |
| --- | --- |
| B6 | 0.089 µg/mL |
| B7 | 0.02 µg/mL |
| B8 | 0.034 µg/mL |
| B9 | 0.033 µg/mL |
| B10 | 0.127 µg/mL |

molecular target: T1, human TIGIT; test: flow cytometry on CHO-S cells expressing human TIGIT, competitor CD112-Fc-Alexa 647, at 1 ug/mL
Method: as §1

| Binder | % inhibition |
| --- | --- |
| B2 | 86% |
| B3 | 88% |
| B1 | 100% |
| B4 | 91% |
| B5 | 85% |

molecular target: T7, cynoTIGIT (PL40461) (cynomolgus monkey); test: Octet, antibody on anti-huIgG Fc capture tips, cynoTIGIT as analyte
T7 construct: Soluble protein; also called Cyno TIGIT (Octet analyte)
T7 sequence (chain, as listed by the source limits assumed): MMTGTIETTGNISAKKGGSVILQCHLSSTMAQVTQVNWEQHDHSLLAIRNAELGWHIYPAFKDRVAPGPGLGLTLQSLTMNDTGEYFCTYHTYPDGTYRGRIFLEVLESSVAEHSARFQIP
Method: as §3

| Binder | Kd |
| --- | --- |
| B2 | 17 nM |
| B3 | 38 nM |
| B5 | 18 nM |

molecular target: T1, human TIGIT; test: flow cytometry, 1 µg/mL on activated primary human T cells, fold over isotype control
Method: as §4

| Binder | FACS Geomean Fold |
| --- | --- |
| B2 | 4.5 fold |
| B3 | 4.5 fold |
| B1 | 13.7 fold |
| B4 | 13.5 fold |
| B5 | 4.1 fold |

molecular target: T5, biotinylated human CD112R-Fc; test: flow cytometry on beads, supernatant at 5 µg/mL, competitor Alexa 647 CD112-huFc at 370 ng/mL
Method: Biotinylated human CD112R-Fc was captured on Streptavidin polystyrene beads (Spherotech, Cat. No. SVP-60-5) in FACS buffer and incubated for 30 minutes at room temperature. Beads were washed twice with FACS buffer, centrifuged to pellet the beads, supernatant removed and resuspended in FACS buffer to remove unbound protein. Biotinylated human CD112R coated beads were added to a 96-well plate. Hybridoma supernatant samples were added such that 5 μg/mL final, beads were resuspended and incubated for 1 hour at room temperature. […] Beads were washed once with FACS buffer, centrifuged to pellet the beads, supernatant removed and resuspended in FACS buffer to remove unbound ligand. Samples were then resuspended in FACS buffer and read on BD Accuri™ Flow Cytometer with an Intellicyt HyperCyt autosampler.

| Binder | % of CD112 ligand prevented from binding |
| --- | --- |
| B11 | ≥ 90% |
| B6 | ≥ 90% |
| B7 | ≥ 90% |
| B8 | ≥ 90% |
| B9 | ≥ 90% |
| B10 | ≥ 90% |
